From patent US20200040101A1

Experiments:
[1] = target: CLDN18.1 expressed on HEK 293 cells (UniProt P56856); assay: FACS, secondary antibody alone on HEK 293 cells expressing CLDN 18.1
[2] = target: human Claudin 18.2 (CLDN18.2) expressed on cells (human) (UniProt P56856); assay: FACS, secondary antibody alone on HEK 293 cells expressing CLDN 18.2

MFI [1]: 18
MFI [2]: 53
Substance: Sec. antibody
